Experimental data reported in patent US7704695B2, “Screening of compounds for BGT1 transporter activity” (XenoPort, Inc., priority 2005, dated 2010).

Substrate: NCCCC(=O)O
Test: hBGT1 direct uptake assay (LC-MS-MS)
Assay type: cell-based, human
Conditions: other: HEK-TREx-hBGT1 cells induced to express hBGT1
Method: A modified direct uptake assay was developed to determine the ability of test compounds to be transported into HEK-TREx cells induced to over-express hBGT1. Four concentrations (bracketing the affinity as measured by competition assays) per compound were routinely tested. Non-specific uptake was determined by measuring the uptake into cells not induced to express the transporter (“no tet”).
Typically, four concentrations bracketing the IC50 were tested. The highest test concentration for each compound was made in an Eppendorf tube and diluted into HBSS. The samples were robustly vortexed and centrifuged for 10 minutes at 13,200 rpm to spin down any precipitate. […] Three additional 2-fold dilutions were made in the subsequent rows (B-D or F-G) in HBSS.
An internal standard of 50 μM propranolol in 50:50 ethanol:water was also prepared. To prepare standard curves, several concentrations of the test compounds were diluted into HEK cell extract (prepared from tet-treated, mock-incubated, and extracted cells as described below) with a final internal standard concentration of 5 μM. Standards of 10, 5, 1, 0.5, 0.1, 0.05, 0.01, and 0.005 μM were routinely run for each test compound. […]

B1: hBGT1 (Homo sapiens) (protein)
chain: MDGKVAVQECGPPAVSWVPEEGEKLDQEDEDQVKDRGQWTNKMEFVLSVAGEIIGLGNVWRFPYLCYKNGGGAFFIPYFIFFFVCGIPVFFLEVALGQYTSQGSVTAWRKICPLFQGIGLASVVIESYLNVYYIIILAWALFYLFSSFTSELPWTTCNNFWNTEHCTDFLNHSGAGTVTPFENFTSPVMEFWERRVLGITSGIHDLGSLRWELALCLLLAWVICYFCIWKGVKSTGKVVYFTATFPYLMLVILLIRGVTLPGAYQGIIYYLKPDLFRLKDPQVWMDAGTQIFFSFAICQGCLTALGSYNKYHNNCYKDCIALCFLNSATSFVAGFVVFSILGFMSQEQGVPISEVAESGPGLAFIAFPKAVTMMPLSQLWSCLFFIMLIFLGLDSQFVCVECLVTASIDMFPRQLRKSGRRELLILTIAVMCYLIGLFLVTEGGMYIFQLFDYYASSGICLLFLSLFEVVCISWVYGADRFYDNIEDMIGYRPWPLVKISWLFLTPGLCLATFLFSLSKYTPLKYNNVYVYPPWGYSIGWFLALSSMVCVPLFVVITLLKTRGPFRKRLRQLITPDSSLPQPKQHPCLDGSAGRNFGPSPTREGLIAGEKETHL
notes: expressed in transfected cells; host or cells: HEK-TREx cells (HEK-TREx-BGT1 inducible line), induced with tetracycline/doxycycline and butyrate
Protein B1 has a Km of 27 µM.
